Source: the Human Domainome abundance scans (Beltran et al. 2025)
± gives the uncertainty stated by the source.

B1: Formin-binding protein 4, residues 200 to 261; numbered along this chain, Q8N3X1 (parent)
chain: SGWQYDTQCSLAGVGIEMGDWQEVWDENTGCYYYWNTQTNEVTWELPQYLATQVQGLQHYQP
B2: Myocardin, residues 363 to 406; numbered along this chain, Q8IZQ8 (parent)
chain: KPGPLPPNLDDLKVSELRQQLRIRGLPVSGTKTALMDRLRPFQD

Variants of: B1
Test: abundance fitness (aPCA) (normalised: wild type 0, dead -1); higher = more abundant; growth selection in yeast, the domain comes from the species named
Conditions: Homo sapiens

Variant	abundance fitness
D6G	-0.17 ± 0.068
D6E	-0.135 ± 0.086
D6A	-0.354 ± 0.081
D6C	-0.342 ± 0.11
D6I	-0.228 ± 0.11
D6F	-0.492 ± 0.1
D6V	-0.829 ± 0.1
D6T	-0.139 ± 0.081
D6Q	-0.785 ± 0.17
D6P	-0.706 ± 0.13
D6K	0.009 ± 0.088
D6S	-0.35 ± 0.07
D6R	-0.14 ± 0.064
D6W	-0.555 ± 0.1
D6Y	-0.644 ± 0.14
D6H	-0.282 ± 0.12
T7Q	-0.012 ± 0.084
T7W	-0.493 ± 0.096
T7D	-0.314 ± 0.11
T7S	0.002 ± 0.063
T7E	-0.392 ± 0.1
T7V	-0.262 ± 0.067
T7N	0.124 ± 0.1
T7F	-0.461 ± 0.11
T7Y	-0.181 ± 0.11

Variant	abundance fitness
T7C	0.051 ± 0.076
T7A	0.017 ± 0.067
T7M	-0.37 ± 0.1
T7P	-0.309 ± 0.083
T7G	-0.06 ± 0.069
T7H	-0.318 ± 0.13
T7K	-0.036 ± 0.093
T7I	-0.453 ± 0.13
T7R	-0.061 ± 0.062
T7L	-0.452 ± 0.068
G2D	0.196 ± 0.075
G2L	-0.022 ± 0.081
G2T	0.328 ± 0.083
G2S	0.222 ± 0.065
G2H	0.607 ± 0.17
G2N	0.405 ± 0.11
G2C	-0.276 ± 0.11
G2R	-0.097 ± 0.066
G2I	0.273 ± 0.11
G2Q	0.052 ± 0.14
G2W	-0.25 ± 0.12
G2M	0.19 ± 0.11
G2Y	0.422 ± 0.13
G2F	0.071 ± 0.13
G13C	-0.103 ± 0.098

Variant	abundance fitness
G13L	-0.187 ± 0.055
G13V	-0.424 ± 0.069
G13K	-0.107 ± 0.094
G13R	-0.194 ± 0.057
G13E	-0.161 ± 0.094
G13F	-0.129 ± 0.084
G13N	-0.468 ± 0.15
G13Y	-0.578 ± 0.14
G13T	-0.009 ± 0.077
G13I	-0.471 ± 0.14
G13Q	-0.197 ± 0.11
G13P	-0.082 ± 0.079
G13H	-0.158 ± 0.14
G13W	-0.666 ± 0.097
G13S	-0.171 ± 0.065
G13A	-0.237 ± 0.09
G13D	-0.087 ± 0.094
G13M	-0.158 ± 0.1
Q4H	0.126 ± 0.088
Q4S	-0.023 ± 0.055
Q4L	-0.385 ± 0.065
Q4M	0.165 ± 0.089
Q4F	0.146 ± 0.083
Q4G	-0.207 ± 0.073
Q4A	-0.447 ± 0.092

Variant	abundance fitness
Q4V	0.147 ± 0.061
Q4I	0.232 ± 0.085
Q4D	0.182 ± 0.1
Q4C	-0.051 ± 0.085
Q4W	-0.241 ± 0.078
Q4K	0.358 ± 0.088
Q4T	0.288 ± 0.07
Q4Y	-0.176 ± 0.097
Q4E	-0.037 ± 0.11
Q4R	0.106 ± 0.053
Q4P	-0.635 ± 0.12
Q4N	0.318 ± 0.088
C9A	0.076 ± 0.055
C9W	-0.377 ± 0.095
C9Q	0.017 ± 0.082
C9K	0.254 ± 0.073
C9I	-0.171 ± 0.089
C9L	0.049 ± 0.05
C9G	-0.081 ± 0.058
C9V	0.205 ± 0.048
C9H	-0.139 ± 0.11
C9D	0.052 ± 0.084
C9Y	-0.105 ± 0.076
C9P	-0.365 ± 0.088
C9S	0.065 ± 0.059

Variant	abundance fitness
C9T	0.22 ± 0.069
L11P	-0.636 ± 0.12
L11H	-0.559 ± 0.12
L11A	-0.731 ± 0.088
L11G	-0.678 ± 0.084
L11N	-0.79 ± 0.17
L11Y	-0.57 ± 0.12
L11V	-0.192 ± 0.059
L11E	-0.483 ± 0.097
L11F	-0.714 ± 0.14
L11D	-0.429 ± 0.12
L11M	-0.625 ± 0.12
L11W	-0.381 ± 0.11
L11K	-0.469 ± 0.14
L11I	-0.061 ± 0.093
L11C	-0.429 ± 0.1
Y5A	-0.416 ± 0.089
Y5C	-0.592 ± 0.15
Y5I	-0.436 ± 0.12
Y5H	-0.052 ± 0.13
Y5P	-0.506 ± 0.11
Y5G	-0.36 ± 0.093
Y5Q	-0.357 ± 0.092
Y5E	-0.218 ± 0.086
Y5F	-0.115 ± 0.095

Variant	abundance fitness
Y5W	-0.207 ± 0.09
Y5R	-0.181 ± 0.061
Y5S	-0.323 ± 0.067
Y5M	0.06 ± 0.064
Y5D	-0.525 ± 0.17
Y5T	-0.271 ± 0.085
Y5L	-0.425 ± 0.058
Y5V	-0.534 ± 0.09
S10G	-0.148 ± 0.052
S10M	-0.521 ± 0.12
S10N	-0.533 ± 0.13
S10Y	-0.623 ± 0.17
S10R	-0.328 ± 0.062
S10F	-0.776 ± 0.14
S10C	-0.332 ± 0.098
S10I	-0.476 ± 0.14
S10L	-0.651 ± 0.074
S10Q	-0.498 ± 0.11
S10P	-0.216 ± 0.081
S10H	-0.644 ± 0.15
S10T	-0.112 ± 0.078
S10W	-1.03 ± 0.17
S10K	-0.457 ± 0.12
S10D	-0.472 ± 0.12
S10A	-0.266 ± 0.065

Variant	abundance fitness
S10V	-0.701 ± 0.071
A12Q	-0.131 ± 0.094
A12V	-0.041 ± 0.06
A12I	-0.363 ± 0.12
A12L	-0.272 ± 0.057
A12M	-0.587 ± 0.11
A12Y	-0.025 ± 0.11
A12T	-0.389 ± 0.084
A12S	-0.068 ± 0.06
A12D	-0.226 ± 0.14
A12N	-0.331 ± 0.13
A12C	-0.185 ± 0.1
A12K	-0.146 ± 0.11
A12H	-0.217 ± 0.12
A12P	-0.448 ± 0.11
A12F	-0.465 ± 0.13
A12E	-0.267 ± 0.12
A12G	0.089 ± 0.077
Q8M	-0.097 ± 0.072
Q8A	0.29 ± 0.062
Q8V	-0.191 ± 0.062
Q8N	-0.02 ± 0.13
Q8S	0.164 ± 0.055
Q8G	0.105 ± 0.056
Q8Y	-0.267 ± 0.13

Variant	abundance fitness
Q8K	0.239 ± 0.08
Q8P	-0.568 ± 0.11
Q8T	0.187 ± 0.067
Q8H	0.041 ± 0.12
Q8C	-0.188 ± 0.091
Q8W	-0.421 ± 0.082
Q8D	-0.515 ± 0.16
Q8L	-0.369 ± 0.061
Q8F	-0.233 ± 0.11
Q8E	0.123 ± 0.084
Q8R	0.046 ± 0.053
Q8I	-0.445 ± 0.16
V14Y	0.365 ± 0.13
V14P	-0.698 ± 0.11
V14D	-0.273 ± 0.24
V14K	0.116 ± 0.068
V14W	0.055 ± 0.081
V14T	-0.084 ± 0.091
V14G	0.091 ± 0.071
V14N	-0.067 ± 0.16
V14M	-0.028 ± 0.082
V14E	-0.03 ± 0.087
V14L	-0.071 ± 0.053
V14S	-0.163 ± 0.075
V14Q	0.071 ± 0.084

Variant	abundance fitness
V14C	-0.043 ± 0.17
V14A	-0.06 ± 0.07
V14R	-0.01 ± 0.064
V14H	-0.09 ± 0.18
W3M	0.046 ± 0.068
W3H	-0.296 ± 0.1
W3D	-0.019 ± 0.1
W3Y	0.012 ± 0.14
W3Q	0.157 ± 0.086
W3P	-0.158 ± 0.08
W3E	-0.376 ± 0.11
W3S	0.127 ± 0.058
W3I	-0.217 ± 0.11
W3C	-0.097 ± 0.083
W3T	0.168 ± 0.07
W3L	-0.003 ± 0.055
W3G	-0.275 ± 0.058
W3A	0.002 ± 0.059
W3F	0.156 ± 0.09
W3R	-0.202 ± 0.058
W3K	0.138 ± 0.083
W3V	0.054 ± 0.053
S1T	0.046 ± 0.098
S1N	-0.093 ± 0.18
S1E	0.066 ± 0.31

Variant	abundance fitness
S1P	-0.709 ± 0.2
S1W	-0.075 ± 0.17
S1K	0.293 ± 0.15
S1D	0.085 ± 0.41
S1H	-0.921 ± 0.38
S1A	0.057 ± 0.11
S1M	0.503 ± 0.11
S1G	0.116 ± 0.11
S1Q	-0.673 ± 0.35
S1I	-0.222 ± 0.28
S1L	-0.501 ± 0.11
S1Y	-0.631 ± 0.2
S1F	-0.457 ± 0.14
S1C	-0.068 ± 0.16
S1R	-0.236 ± 0.22
S1V	-0.052 ± 0.09

Variants of: B2
Test: as above
Conditions: Homo sapiens

Variant	abundance fitness
L39V	-0.594 ± 0.092
E16R	-0.827 ± 0.12
F42Y	-0.102 ± 0.1
F42S	0.03 ± 0.092
F42E	-0.148 ± 0.086
F42Q	-0.06 ± 0.093
V14K	-0.157 ± 0.1
V14H	-0.396 ± 0.19
D10H	-0.315 ± 0.13
Q19V	-0.544 ± 0.096
Q19W	-0.717 ± 0.18
Q19G	-0.368 ± 0.066
P6I	-0.361 ± 0.12
P6F	-0.356 ± 0.42
K32E	-0.286 ± 0.085
R24V	-0.528 ± 0.1
R24K	-0.387 ± 0.095
G25S	-0.318 ± 0.12
G25K	0.068 ± 0.14
G25N	-0.024 ± 0.18
G25F	-0.175 ± 0.38
G25W	-1.15 ± 0.25
G25D	-0.246 ± 0.16
G30R	-0.876 ± 0.12

Variant	abundance fitness
G30N	-0.871 ± 0.48
G30D	-0.504 ± 0.13
G30T	-0.901 ± 0.3
I23W	-0.291 ± 0.085
S15N	-0.288 ± 0.23
S15A	0.113 ± 0.068
P4E	0.107 ± 0.069
P4T	0.329 ± 0.099
L12P	-0.899 ± 0.21
L12T	-0.401 ± 0.1
P41G	-0.084 ± 0.055
P41C	-0.151 ± 0.085
P7Q	0.266 ± 0.073
A34L	-0.721 ± 0.13
Q43G	-0.152 ± 0.064
Q43A	-0.042 ± 0.1
Q43H	-0.376 ± 0.17
Q43S	-0.061 ± 0.083
D44A	-0.086 ± 0.13
D44N	-0.236 ± 0.23
D44E	-0.031 ± 0.19
D44G	0 ± 0.064
D44R	-0.03 ± 0.2
T33A	0.077 ± 0.064

Variant	abundance fitness
T33N	-0.001 ± 0.08
L17H	-0.878 ± 0.31
L17E	-0.454 ± 0.09
L17R	-0.606 ± 0.071
V28T	0.153 ± 0.088
S29E	0.129 ± 0.074
S29L	-0.333 ± 0.093
S29C	-0.191 ± 0.11
G3A	0.126 ± 0.088
G3W	-0.607 ± 0.083
G3H	0.059 ± 0.12
P2E	0.401 ± 0.094
P2H	-0.093 ± 0.11
R38E	-0.451 ± 0.086
R38H	-1.2 ± 0.26
L21G	-0.68 ± 0.069
L21D	-0.361 ± 0.11
L21Q	-0.517 ± 0.091
L21P	-0.523 ± 0.12
L21N	-0.244 ± 0.26
R40E	-0.152 ± 0.087
T31V	-0.189 ± 0.072
T31A	0.078 ± 0.1
T31W	-0.994 ± 0.13

Variant	abundance fitness
T31H	-0.331 ± 0.13
L5W	-0.984 ± 0.13
D37M	-0.264 ± 0.44
D37P	-0.966 ± 0.15
D37W	-0.829 ± 0.1
L35N	-0.613 ± 0.17
L26K	-0.404 ± 0.2
L26M	0.075 ± 0.13
L26R	-0.858 ± 0.083
R22N	-0.371 ± 0.11
R22M	-0.619 ± 0.44
K1I	0.021 ± 0.11
N8D	-0.246 ± 0.068
N8V	-0.048 ± 0.063
N8L	-0.35 ± 0.06
L9K	-0.741 ± 0.19
D11F	-0.175 ± 0.16
R18W	-0.861 ± 0.19
R18Y	-0.744 ± 0.31
P27E	-0.245 ± 0.087
P27H	-0.149 ± 0.19
